Values of other authors, collected in US20260007686A1, “COMPOSITIONS AND METHODS FOR IMPROVING VISION” (Ripple Therapeutics Corporation, priority 2022, published 2026).

What was measured:
[1] = test system: macular edema in individuals with diabetic macular edema (DME); settings: literature studies (Boyer et al.; Callanan et al.)
[2] = test system: visual acuity of individuals with diabetic macular edema (DME); settings: literature studies (Boyer et al.; Callanan et al.)

B1: ranibizumab (antibody, chains of the INN, looked up, V domains shown)
VH: EVQLVESGGGLVQPGGSLRLSCAASGYDFTHYGMNWVRQAPGKGLEWVGWINTYTGEPTYAADFKRRFTFSLDTSKSTAYLQMNSLRAEDTAVYYCAKYPYYYGTSHWYFDVWGQGTLVTVSS
VL: DIQLTQSPSSLSASVGDRVTITCSASQDISNYLNWYQQKPGKAPKVLIYFTSSLHSGVPSRFSGSGSGTDFTLTISSLQPEDFATYYCQQYSTVPWTFGQGTKVEIK
modifications: Fab
notes: ranibizumab injection, a clinically approved anti-VEGF intravitreal injection
For B1, the “Mean Change in CST at M3” value ([1]; month 3) is given as −140 μm, the “Mean Change in CST at M6” value ([1]; month 6) is given as −133 μm and the “Mean Change in BCVA at M3” value ([2]; month 3) is given as “+6 letters”. The “Mean Change in BCVA at M6” value ([2]; month 6) was “+8 letters”.
